Source: patent US20100129815

Legend:
[1] = molecular target: T1, GST-MLC2v fusion protein, P08733
T1 chain: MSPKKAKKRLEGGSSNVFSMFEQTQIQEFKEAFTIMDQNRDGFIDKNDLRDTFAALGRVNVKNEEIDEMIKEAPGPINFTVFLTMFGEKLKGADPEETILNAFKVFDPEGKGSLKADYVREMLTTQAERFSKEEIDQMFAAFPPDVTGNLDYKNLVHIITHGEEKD

[2] = molecular target: T2, GST-MLC2a fusion protein, Q9QVP4
T2 chain: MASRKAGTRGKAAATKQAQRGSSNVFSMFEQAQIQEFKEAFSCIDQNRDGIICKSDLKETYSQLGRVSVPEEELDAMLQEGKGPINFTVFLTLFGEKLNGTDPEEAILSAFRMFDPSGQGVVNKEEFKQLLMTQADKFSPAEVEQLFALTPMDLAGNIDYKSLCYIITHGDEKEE

B1: HA-tagged full length cardiac MLCK (protein)
chain: MYPYDVPDYASGVSEEDPEGLAPQGLPALGGACLATMDKKLNVLTEKVDRLLHFQEDVTEKLQCVCQGMDHLEQDLHRLEASRELSLAGSGSTPPTTAQAAWPEVLELVRAVRQEGAQHGARLEALFKMVVAVDRAITLVGSTFQNSKVADFIMQGTVPGRKGSLADGPEENKEQAEVAGVKPNHVLTTGGVQADASRTLWEESQKEDIPVRTVEGLPLIINTSLKGADLTQAGASLRQGVEVLGPGQVPLPTEAESRLPETASENTGATLELSVAIDRISEVLTSLKMSQGGGQETSSSKPDCWLSEEAMRLSSGPLPQPLGPLTPDSDIHSGDALPRIPINMQEMATPGELLETQSGSPIGSAEAPGLGTVLEDQIPKGARPFPPLPKRSSNNGGMSAEEEIGSGAEPMRGPSLATRDWRDETVGTTDLQQGIDPGAVSPEPGKDHAAQGPGRTEAGRLSSAAEAAIVVLDDSAAPPAPFEHRVVSIKDTLISAGYTVSQHEVLGGGRFGQVHRCTERSTGLALAAKIIKVKNVKDREDVKNEVNIMNQLSHVNLIQLYDAFESKSSFTLIMEYVDGGELFDRITDEKYHLTELDVVLFTRQICEGVHYLHQHYILHLDLKPENILCVSQTGHQIKIIDFGLARRYKPREKLKVNFGTPEFLAPEVVNYEFVSFPTDMWSVGVITYMLLSGLSPFLGETDAETMNFIVNCSWDFDADTFKGLSEEAKDFVSRLLVKEKSCRMSATQCLKHEWLSHLPAKASGSNVRLRSQQLLQKYMAQSKWKKHFHVVTAVNRLRKFPTCP
- Km (Lineweaver-Burk plot, 32P incorporation into GST-MLC2v; with Ca2+/calmodulin) [1]: 3.9±1.2 (with Ca^2+/calmodulin)
- Km (Lineweaver-Burk plot, 32P incorporation into GST-MLC2v; with EGTA) [1]: 2.9±0.8 (with EGTA)
- Km (Lineweaver-Burk plot, 32P incorporation into GST-MLC2v; without EGTA and Ca2+/calmodulin) [1]: Km value of 4.3±1.5 µM
- in vitro kinase assay, incorporation of 32P [1]: promotes incorporation of ^32P to GST-MLC2v and GST-MLC2a fusion proteins
- in vitro kinase assay, incorporation of 32P [2]: promotes incorporation of ^32P to GST-MLC2v and GST-MLC2a fusion proteins
